Measured values as given in patent US12365732 (23ANDME, dated 2025).

T1: hu-CD96 isoform 2 on CHO cells (human, UniProt P40200 22-585)
T1 construct: also called CHO-CD96 (isoform 2); CD96-CHOs
T1 sequence: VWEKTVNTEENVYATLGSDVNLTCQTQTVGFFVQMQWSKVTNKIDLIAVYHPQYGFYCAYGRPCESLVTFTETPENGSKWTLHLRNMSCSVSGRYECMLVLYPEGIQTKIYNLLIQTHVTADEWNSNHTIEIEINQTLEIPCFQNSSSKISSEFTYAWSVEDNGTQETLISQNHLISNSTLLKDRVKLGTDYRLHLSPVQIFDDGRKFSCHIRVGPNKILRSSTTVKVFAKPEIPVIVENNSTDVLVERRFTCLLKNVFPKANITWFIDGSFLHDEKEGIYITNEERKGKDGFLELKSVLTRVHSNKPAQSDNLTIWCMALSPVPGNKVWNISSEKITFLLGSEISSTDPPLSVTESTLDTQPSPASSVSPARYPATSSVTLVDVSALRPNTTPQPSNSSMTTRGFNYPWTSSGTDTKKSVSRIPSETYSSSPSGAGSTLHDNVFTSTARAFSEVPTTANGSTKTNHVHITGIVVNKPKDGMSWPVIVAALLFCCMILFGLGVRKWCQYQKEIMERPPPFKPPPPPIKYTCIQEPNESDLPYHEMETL

T2: cynomolgus monkey CD96 on cynomolgus monkey PBMCs (cynomolgus monkey, UniProt A0A2K5TWV6 22-569)
T2 construct: whole, on cells
T2 sequence: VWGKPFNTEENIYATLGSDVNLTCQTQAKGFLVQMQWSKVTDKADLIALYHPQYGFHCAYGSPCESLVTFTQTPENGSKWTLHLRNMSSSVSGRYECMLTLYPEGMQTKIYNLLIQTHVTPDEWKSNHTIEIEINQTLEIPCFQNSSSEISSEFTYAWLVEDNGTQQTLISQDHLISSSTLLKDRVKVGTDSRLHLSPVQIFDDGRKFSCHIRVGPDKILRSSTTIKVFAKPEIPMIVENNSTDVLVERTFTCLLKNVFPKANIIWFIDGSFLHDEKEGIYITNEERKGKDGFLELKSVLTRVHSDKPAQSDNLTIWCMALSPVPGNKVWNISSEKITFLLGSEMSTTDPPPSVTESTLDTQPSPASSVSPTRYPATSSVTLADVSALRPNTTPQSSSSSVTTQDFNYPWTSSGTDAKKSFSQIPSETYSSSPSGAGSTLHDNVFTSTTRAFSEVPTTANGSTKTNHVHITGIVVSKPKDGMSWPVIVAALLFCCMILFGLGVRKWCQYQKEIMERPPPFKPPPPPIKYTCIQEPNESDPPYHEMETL


Experiments:
[1] = molecular target: T1, hu-CD96 isoform 2 on CHO cells; experiment: FACS, Ab 0.016 nM
Method: (§1) Isoform 1 of hu-CD96 (Origene, catalog #RC213845) was transiently expressed in HEK293T cells following standard lipofectamine or Fugene transfection protocol. […] Cells were washed, and binding was detected by incubation with anti-mouse IgG-FITC (Biolegend, catalog #406001) for 20 minutes at 4° C. Cell binding was analyzed by flow cytometry with a CytoFLEX (Beckman Coulter). Binding curves were calculated as a percentage of cells positive for bound antibody.
(§2) Isoform 2 of hu-CD96 (DNA construct: Origene, catalog #RC221005) was expressed on a single-cell-clone-derived CHO stable cell line. Binding of the anti-CD96 antibodies to the CHO cells were determined as described above with isoform 1 of hu-CD96.

[2] = molecular target: T1, hu-CD96 isoform 2 on CHO cells; experiment: FACS, Ab 2 nM
Method: as §1, §2

[3] = molecular target: T1, hu-CD96 isoform 2 on CHO cells; experiment: FACS, Ab 0.08 nM
Method: as §1, §2

[4] = molecular target: T2, cynomolgus monkey CD96 on cynomolgus …; experiment: FACS, % positive curve
Method: (§3) The ability of the anti-CD96 antibodies to bind primary immune cells from human and cynomolgus monkey with lower level of receptor expression was measured. Human PBMCs (StemCell Technologies, catalog #70025) and cynomolgus monkey PBMCs (Primate Biologicals, catalog #CM-MC) were incubated with human TruStain FcX (Biolegend, catalog #422302) for 10 minutes at 4° C., followed by incubation with an anti-CD96 antibody for 20 minutes at 4° C. Cells were washed and the anti-CD96 antibody binding was detected by incubation with anti-mouse IgG-PE (Thermo Fisher, catalog #M30204) or anti-human IgG (Fab) 2-PE (Thermo Fisher, catalog #H10104) for 20 minutes at 4° C. Cells were washed, and immune subtypes were labeled with anti-CD3 (BD, catalog #557705), anti-CD4 (Biolegend, catalog #317424) and anti-CD8 (BD, catalog #557760) for 20 minutes at 4° C. Cell binding was analyzed by flow cytometry with a CytoFLEX (Beckman Coulter). Binding curves were calculated as a percentage of cells positive for bound antibody in the cell type of interest.

[5] = molecular target: T1, hu-CD96 isoform 2 on CHO cells; experiment: FACS, CD155-Fc-FLAG 10 nM, Ab 0.16 nM
Method: (§4) CHO cells stably expressing isoform 2 of hu-CD96 (Origene, catalog #RC221005) were incubated with anti-CD96 antibodies for 20 minutes at 4° C. The cells were washed, and then incubated with 10 nM human CD155-Fc-FLAG for 30 minutes at 4° C. Cells were washed, and then human CD155-Fc-FLAG binding was detected by incubation with anti-FLAG-APC (Columbia Biosciences, catalog #D3-1718-1MG) for 20 minutes at 4° C. Cell binding was analyzed by flow cytometry with a CytoFLEX (Beckman Coulter). CD155 binding is represented as median fluorescence intensity (MedFI).
(§5) As shown in Table 20 (below), the anti-CD96 antibodies, mAb1.v7.NGS8, mAb1.v7.NGS9, mAb1.v7.NGS10, mAb1.v7.NGS11, and h10G1 inhibited soluble hu-CD155 binding to CD96-expressing CHO cells dose-dependently and potently. The antibody NK92.39 (Fuchs et al., 2004; Biolegend catalog #338405) inhibited receptor binding similarly.

[6] = molecular target: T2, cynomolgus monkey CD96 on cynomolgus …; experiment: FACS, Ab 16 nM
Method: as §3

[7] = molecular target: T1, hu-CD96 isoform 2 on CHO cells; experiment: FACS, CD155-Fc-FLAG 10 nM, Ab 0.0064 nM
Method: as §4, §5

[8] = molecular target: T1, hu-CD96 isoform 2 on CHO cells; experiment: FACS, CD155-Fc-FLAG 10 nM, Ab 0.032 nM
Method: as §4, §5

Binder	% positive [1] [%]	% positive [2] [%]	% positive [3] [%]	EC50 [4] [nM]	CD155-Fc binding (MedFI) [5] [MedFI]	% positive [6] [%]	CD155-Fc binding (MedFI) [7] [MedFI]	CD155-Fc binding (MedFI) [8] [MedFI]
7E5, purified hybridoma antibody (antibody, V domains shown, murine hybridoma IgG) VH: QVQLKESGPGLVAPSQSLSIICTVSGFSLTNYGIHWIRQPPGKGLEWLGIIWAGGSTNYNSALMSRLTISKDNSKSQVFLKMNSLQTNDTAIYYCARVSMMGFAYWGQGTLVTVSA VL: QAVVTQESALTTSPGETVTLTCRSSTGAVTTSNYANWVQEKPDHLFTGLIGGTNNRAPGVPARFSGSLIGDKAALTITGAQTEDEAIYFCSLWYGSHWVFGGGTKLTVL	3.6	53.3	24.6					
mAb1.v7 IgG (humanized 12F8) (antibody, V domains shown, human IgG1 N297G) VH: EVQLVQSGAEVKKPGASVKVSCKASGFTFTNNWMHWVRQAPGQGLEWIGMIHPNSGITNINEKFKNRVTMTTDTSTSTAYMELRSLRSEDTAVYYCRSDGTYEGYFDYWGQGTLVTVSS VL: DIQLTQSPSSLSASVGDRVTITCKASQNVGTAIVWYQQKPGKAPKVLIYSASTRYTGVPSRFSGSGSGTDFTLTISSLQPEDFATYYCQQYSSSPLTFGQGTKVEIKG	0.4	42.4	1.4					
mAb1.v7.NGS9 IgG (antibody, V domains shown, human IgG1 N297G) VH: EVQLVQSGAEVKKPGASVKVSCKASGFTFTNNFMHWVRQAPGQGLEWIGMIHANSGITNINEKFKNRVTMTTDTSTSTAYMELRSLRSEDTAVYYCRSDGVYEGYFDYWGQGTLVTVSS VL: DIQLTQSPSSLSASVGDRVTITCKASQNVGTAIVWYQQKPGKAPKVLIYSASTRYTGVPSRFSGSGSGTDFTLTISSLQPEDFATYYCQQYSSSPLTFGQGTKVEIKG				0.073	54600	76.1	56600	53000
mAb1.v7.NGS10 IgG (antibody, V domains shown, human IgG1 N297G) VH: EVQLVQSGAEVKKPGASVKVSCKASGFTFTNNFMHWVRQAPGQGLEWIGFIHANSGITNINEKFKNRVTMTTDTSTSTAYMELRSLRSEDTAVYYCRSDGIYEGYFDYWGQGTLVTVSS VL: DIQLTQSPSSLSASVGDRVTITCKASQNVGTAIVWYQQKPGKAPKVLIYSASTRYTGVPSRFSGSGSGTDFTLTISSLQPEDFATYYCQQYSSSPLTFGQGTKVEIKG				0.024	54100	78.5	55900	57700
mAb1.v7.NGS11 IgG (antibody, V domains shown, human IgG1 N297G) VH: EVQLVQSGAEVKKPGASVKVSCKASGFTFTNNFMHWVRQAPGQGLEWIGFIHANSGITNINEKFKNRVTMTTDTSTSTAYMELRSLRSEDTAVYYCRSDGVYEGYFDYWGQGTLVTVSS VL: DIQLTQSPSSLSASVGDRVTITCKASQNVGTAIVWYQQKPGKAPKVLIYSASTRYTGVPSRFSGSGSGTDFTLTISSLQPEDFATYYCQQYSSSPLTFGQGTKVEIKG				0.025	51900	80.8	63600	57700
10G1 (clone 10G1.3G8), purified hybridoma antibody (antibody, V domains shown, murine hybridoma IgG) VH: QIQLVQSGPELKKPGETVKISCKASGYPFTTYGMSWVKQAPGKGLKWMGWINTDSGVPTYADDFKGRFAFSLETSANTAYLQINSLKNEDAATYFCARNIYYGWGNFDYWGQGTILTVSS VL: DILMTQSPTTLSVTPGETVSLSCRASQDIYRNLHWYQQKSQGTPRLLIKHASDSISGIPSRFTGSGSGTDFTLSINSVKPEDEGIYYCLQGYSMPYTFGGGTKLEIK	0.4	34.9	9.4					
9H4, purified hybridoma antibody (antibody, V domains shown, murine hybridoma IgG) VH: EVQLLETGGGLVKSGGSLKLSCAASGFTFSDYYMYWVRQTPEKRLEWVAAISDDGTYTYYPDSVKGRFTISRDNANNYLYLQMSSLKSEDTAIYYCAKAGSYDYFDVWGAGTTVTVSS VL: DIVLTQSPASLAVSLGQRAIISCKASQSVTFADTGLMHWYQQKPGQQPKLLIYRASNLEVGVPTRFSGSGSGTDFTLNIHPVEEEDVATYYCQQSREYPWTFGGGTKLEIK	0.3	44.2	3.1					
h10G1 IgG (humanized 10G1) (antibody, V domains shown, human IgG1 N297G) VH: EIQLVQSGSELKKPGASVKVSCKASGYPFTTYGMSWVRQAPGQGLEWMGWINTDSGVPTYADDFKGRFVFSLDTSVSTAYLQISSLKAEDTAVYFCARNIYYGWGNFDYWGQGTLVTVSS VL: EIVMTQSPDFQSVTPKEKVTITCRASQDIYRNLHWYQQKPDQTPKLLIKHASDSISGIPSRFSGSGSGTDFTLTINSLEAEDAAAYYCLQGYSMPYTFGGGTKVEIKG				0.12	21200	66.1	65700	52100
